Patent publication US9175090B2, “Methods of using an antibody to inhibit WNT-mediated signaling in cancer” (Vanderbilt University, priority 2011, dated 2015)

Tests used:
AXIN2 and c-MYC = assay: Real-time RT-PCR of endogenous Wnt target genes; format: cell-based; conditions: normalized to β-actin mRNA
GSK3 = GSK3 (Homo sapiens, UniProt P49841); assay: GSK3 kinase activity; format: biochemical; conditions: data not shown
Excerpt: (§1) The inventors used a cell line with reduced CK1α levels due to inducible expression of shRNA against CK1α.

[1] = target: β-catenin degradation complex (Homo sapiens, UniProt P48729); assay: In vitro kinase reaction with purified GSK3, CK1α, Axin and β-catenin; format: biochemical; conditions: pyrvinium 10 nM, proteins 100 nM each
Description: (§2) FIGS. 3A-C. […] Phosphorylation of β-catenin on GSK3 sites (p33,37,41) and the priming CK1α site (p45) was detected by immunoblotting. […] Cells were treated with Wnt3a-conditioned media and lysates were assayed for TOPflash to assess Wnt signaling.
as §1

[2] = test system: Wnt signaling (TOPflash) in shRNA-CK1α cells; assay: TOPflash in Jurkat cell line with inducible shRNA for CK1α; format: cell-based; conditions: pyrvinium 30 nM, Wnt3a-conditioned media
Description: as §2, §1

CK1α = CK1α (Homo sapiens, UniProt P48729); assay: Binding and activation of purified recombinant kinases; format: biochemical
[3] = test system: male C57Bl/6 mice with myocardial infarct; format: in vivo
Excerpt: FIGS. 5A-D. Mouse MI model. Representative mouse EKG tracings pre (FIG. 5A) and post (FIG. 5B) coronary artery ligation. […] Arrows mark lateral and posterior left ventricle (LV). LVIDD, LVIDS=LV internal diameter at systole and […], respectively. RV=right ventricle. […] Cardiac dimensions were obtained from 2-D guided M-mode images (100 frames/sec) and were read blinded using short axis and a parasternal long-axis views with the leading edge method. All echo measurements were averaged over 3 consecutive beats on unsedated mice at 7 and 30 days after infarction. Statistical significance assessed by the Wilcoxon rank sum test.
Myocardial infarcts were induced in male C57Bl/6 mice by coronary ligation (FIG. 5) as previously described (Alfaro et al., 2008).
Ventricular remodeling and cardiac functional parameters will be assessed by echo.
Mammalian cardiomyocytes irreversibly withdraw from the cell cycle soon after birth and undergo terminal differentiation. […] Therefore, cardiac injury causes permanent myocardial loss and cardiac dysfunction. […] Proliferation was assessed by immunostaining for Ki-67. […] Phosphorylation of histone 3 (pH3) on Ser 10 is an established cellular marker for chromosome condensation during mitotic prophase (van Amerongen and Engel, 2008).

[4] = test system: Wnt signaling (TOPflash, TCF/Lef1 promoter luciferase); assay: TOPflash reporter assay in HEK 293 STF cells treated with Wnt3a-conditioned media; format: cell-based; conditions: 24 hours, read-out: IC50, inhibition of TOPflash activation (Wnt signaling)
Excerpt: Graph represents mean±s.e.m of TOPflash signal normalized to cell number (performed in quadruplicate). […] Data shown represent mean of four independent amplification reactions, graphed as relative expression to unstimulated cells. Expression levels were normalized to β-actin mRNA. Error bars, RQ values with 95% confidence.

[5] = test system: Wnt3a-mediated Wnt signaling (LRP5/6); assay: Wnt3a-mediated activation of the Wnt pathway, TOPflash reporter cell line (antibody); format: cell-based
Description: FIGS. 11A-B. Wnt activated signaling. (FIG. 11A) Wnt3a activated signaling in 293 HEK cells. (FIG. 11B) Wnt signaling in SW480 colorectal cancer cell line with mutant APC.
The inventors examined effects of antibodies on Wnt signaling activated by recombinant Wnt3a, which was added to the media, and effects of antibodies on Wnt signaling in a colorectal cancer line (SW480) that has constitutively active Wnt signaling due to a mutation in the tumor suppressor, APC. […] This was unexpected because the APC mutation is downstream of the LRP6 receptor, to which the antibody is directed.

[6] = test system: Axin 2 and Cyclin D transcripts; assay: Real time RT-PCR of Wnt target genes in heart homogenates of treated mice; format: in vivo
Description: (§3) The canonical Wnt signaling pathway was assessed using luciferase activity in HEK cells stably transfected with TOPflash reporter. Cells were treated with recombinant Wnt 3a to activate Wnt signaling. […] Cycle thresholds for 18S mRNA transcripts were used to normalize between samples. n=4 mice analyzed at each time point for each cohort. Ki-67-positive cells in the heart (FIG. 8C) and pH3-positive mononucleated, differentiated cardiomyocytes in mabLRP5/6-treated remote myocardium (FIG. 8D).
(§4) To evaluate whether mabLRP5/6 inhibits Wnt-mediated transcription in vivo, the inventors injected 3 groups of mice IV with increasing amounts of mabLRP5/6 (2.3 μg, 4.7 μg or 9.4 μg, n=3 in each group) or control IgM. Mice were sacrificed after 48 hours and serum and tissue samples were obtained. […] Heart tissues from treated animals were homogenized and total RNA isolated for real time RT-PCR analysis (Young et al., 2005). […] The effect on Axin 2 transcript persisted at 72 hours after a single administration. To obtain evidence that mabLRP5/6 has cellular effects on post-MI myocardium, the inventors analyzed by immuno-histology paraffin-embedded sections from male mice treated with either IgM or mabLRP5/6 12 hours prior to induction of acute MI and then sacrificed 14 days later (n=1 for each condition). They identified >3-fold higher Ki-67^+ and pH3^+ cells in the remote LV from the mabLRP5/6-treated mouse compared to the control IgM-treated mouse (FIGS. 8C-D).

[7] = test system: Ki-67+ and pH3+ cells in remote LV; assay: Immunohistology of post-MI myocardium after antibody pretreatment; format: in vivo, mice; conditions: treated 12 hours prior to MI, 14 days, n=1
Description: as §3
as §4, with “They identified >3-fold higher Ki-67^+ and pH3^+ cells in the remote LV from the mabLRP5/6-treated mouse compared to the control IgM-treated mouse (FIGS. 8C-D).” left out

mice = assay: In vivo toxicity of mabLRP5/6; conditions: mouse
[8] = test system: male C57Bl/6 mice with myocardial infarct; assay: Acute myocardial infarct model, IV antibody, echocardiography; format: in vivo
Description: FIG. 9. Effect of low and high dose of mabLRP5/6 adminstered post infarct as compared to […] control. LVIDD and LVIDS to represent cardiac remodeling, and EF, ejection fraction, as a measurement of cardiac function, were determined by echocardiography and are plotted as percentage difference values (mean±SD) between 7 and 30 days after infarct.
The inventors initiated studies to determine the effectiveness of mMABLRP5/6 on repair and regeneration of injured myocardium using an mouse acute myocardial infarct model. Myocardial infarcts were induced in 8-week old male C57Bl/6 mice ([…]) by coronary ligation (FIG. 9) as previously described (Alfaro et al., 2008). At the time of infarction, the inventors administered 10 μg or 20 μg of mabLRP5/6 in 100 μl PBS or the same amount of IgM as control, intravenously by tail vein injection. The mice received a second dose of mabLRP5/6 or control antibody 72 hours after infarct to maintain at least 50% Wnt inhibition activity in the plasma through 7 days post infarct (data not shown). Ventricular remodeling and cardiac function were analyzed by echocardiography pre-infarct and at 7 and 30 days post MI. Ventricular function was reflected by ejection fraction (EF). LV internal dimension diastolic (LVIDD) and LV internal dimension systolic (LVIDS) reflected remodeling of the infarcted ventricle (FIG. 1). […] Additional numbers of animals as well as histologic myocardial analysis and high-resolution visual sonics studies are pending to determine infarct size and elucidate effects of mabLRP5/6 on endogenous cellular myocardial repair.

[9] = test system: β-catenin nuclear accumulation, RKO cells; assay: Wnt3a-induced nuclear accumulation of β-catenin in RKO cells; conditions: 300 pg/ml, 24 hours
Description: RKO cells were treated with Wnt3a in the presence or absence of 300 pg/ml mabLRP6 for 24 hours. Cells were fixed and immunostained for β-catenin (green). DAPI (blue) stains DNA.

[10] = test system: Wnt3a-mediated luciferase activity; assay: Plasma of IV-treated mice tested on TOPflash reporter HEK cells; format: in vivo; conditions: for Greater inhibition of Wnt3a-mediated luciferase activity by plasma compared to IgM controls: 9.4 μg, 100 μl plasma
Description: as §3, §4

Sequence of CK1α (P48729 whole entry): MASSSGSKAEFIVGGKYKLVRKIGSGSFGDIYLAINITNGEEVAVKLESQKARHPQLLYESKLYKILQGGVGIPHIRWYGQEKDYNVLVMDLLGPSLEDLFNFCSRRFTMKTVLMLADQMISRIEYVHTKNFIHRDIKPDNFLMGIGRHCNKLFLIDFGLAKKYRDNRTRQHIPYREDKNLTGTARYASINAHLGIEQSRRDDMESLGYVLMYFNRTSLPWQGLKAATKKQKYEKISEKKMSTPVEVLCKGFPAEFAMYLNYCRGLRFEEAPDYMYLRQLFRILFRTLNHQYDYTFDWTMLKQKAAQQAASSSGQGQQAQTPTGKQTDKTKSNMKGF
Sequence of β-catenin degradation complex (P48729 whole entry, one chain of several): as the sequence (P48729 whole entry) above
Sequence of GSK3 (P49841 whole entry): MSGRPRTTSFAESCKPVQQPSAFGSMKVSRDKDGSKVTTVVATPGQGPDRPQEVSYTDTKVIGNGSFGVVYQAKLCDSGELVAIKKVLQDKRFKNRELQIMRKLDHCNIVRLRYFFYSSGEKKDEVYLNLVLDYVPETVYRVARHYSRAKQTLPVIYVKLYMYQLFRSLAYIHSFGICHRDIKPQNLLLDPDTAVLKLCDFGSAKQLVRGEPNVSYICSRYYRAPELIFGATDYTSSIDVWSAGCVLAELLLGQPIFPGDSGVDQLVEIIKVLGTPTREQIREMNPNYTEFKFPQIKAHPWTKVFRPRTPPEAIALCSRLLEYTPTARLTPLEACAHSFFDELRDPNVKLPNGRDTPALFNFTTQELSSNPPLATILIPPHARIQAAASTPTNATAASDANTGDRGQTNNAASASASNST

## Cc1cc(/C=C/c2ccc3cc(N(C)C)ccc3[n+]2C)c(C)n1-c1ccccc1 [pyrvinium]
AXIN2 and c-MYC
  Levels of endogenous Wnt target genes AXIN2 and c-MYC: decreases
GSK3
  GSK3 activity: no observable effect
[1]
  β-catenin phosphorylation (GSK3 and CK1α sites): dramatic increase
[2]
  Inhibition of TOPflash activity in shRNA-CK1α cells: failed to inhibit
CK1α; data not shown
  Phosphorylation of Tau by CK1α: enhanced
CK1α; pyrvinium 10 nM
  Binding and activation of representative kinases: binding and activation of CK1α alone
[3]; data not shown
  Infarct size, comparison between the two cohorts: did not reflect any statistically significant differences
[3]; mouse, in vivo
  Numbers of Ki-67-positive cells in peri-infarct and remote myocardium, versus Cmpd 211: significantly higher
  Numbers of Ki-67-positive cells in the scar, versus Cmpd 211: similar
[3]; single 200 nM injection, p<0.05
  Average difference in fractional shortening between days 7 and 30: 22.3+5.2
[3]; single intramyocardial injection into LV apex, data not shown
  Myocyte proliferation in sham-operated animals: did not induce myocyte proliferation
[4]
  IC50: ~10 nM

B1: mabLRP5/6: stable hybridoma line monoclonal antibody against LRP5/6 raised in BALB/c mice with human LRP6 fragments; inhibits Wnt signaling (antibody, V domains shown)
VH: QVQLKESGPGLVASSQSLSITCTVSGFSLSRYSVHWVRQPPGKGLEWLGMIWGGGSTDYNSALKSRLGISKDNSKSQVFLKMNSLQTDDTAMYYCAGTGSWFAYWGQGTLVTVSA
VL: DIQMTQSPASLSASVGETVTITCRASGNIHNYLAWYQQKQGKSPQLLVYNAKTLADGVPSRFSGSGSGTQYSLKINSLQPEDFGSYYCQHFWSTPWTFGGGTKLEIK
[5]
  IC50, inhibition of Wnt signaling: ~0.2 ng/mL
[6]; 48 h
  Reduction in Axin 2 transcripts in heart compared to controls: ~2 fold
  Reduction in Cyclin D transcripts in heart compared to controls: ~2 fold
[6]; 72 hours after a single administration
  Effect on Axin 2 transcript in heart: persisted
[7]
  Ki-67+ cells in remote LV, higher than control IgM: > 3 fold
  pH3+ cells in remote LV, higher than control IgM: > 3 fold
mice
  In vivo toxicity: minimal toxicity
[8]; 20 μg compared with 10 μg dose or control IgM
  Percentage difference in LVIDS between day 7 and day 30: reduced in a dose-dependent manner
[8]; high dose
  Decrease in ejection fraction (EF) between day 7 and day 30: decreased less
[8]; high dose (20 μg IV at infarction and 72 hours)
  Percentage difference in LVIDD between day 7 and day 30: 5.36±0.83 percentage
[8]; low dose
  Decrease in ejection fraction (EF) between day 7 and day 30: ~6%
[8]; low dose (10 μg IV at infarction and 72 hours)
  Percentage difference in LVIDD between day 7 and day 30: 6.23 ± 2.3 percentage
[8]; second dose at 72 hours, through 7 days post infarct, data not shown
  Wnt inhibition activity in the plasma: at least 50%
[9]
  Wnt3a-induced nuclear accumulation of β-catenin: blocked
[9]; listed as mabLRP6
  Wnt3a-induced nuclear accumulation of β-catenin: inhibits
[10]; 48 hours after administration
  Greater inhibition of Wnt3a-mediated luciferase activity by plasma compared to IgM controls: ~5 fold
[10]; 72 hours after administration
  Greater inhibition of Wnt3a-mediated luciferase activity by plasma compared to IgM controls: ~2 fold
[10]; IV 4.7 and 9.4 μg, 50 μl plasma, 48 and 72 hours
  Wnt signaling in TOPflash reporter cell line treated with plasma: inhibited Wnt signaling
